According to patent US20230140200A1, “COMPOSITIONS AND METHODS FOR DETECTING CELLS UNDERGOING FERROPTOSIS USING AN ANTIBODY” (THE TRUSTEES OF COLUMBIA UNIVERSITY IN THE CITY OF NEW YORK, priority 2020, published 2023):
“Also recorded” adds a separate entry of the source.

Experiments:
human brain tissues = assay: Staining of post-mortem Huntington's disease and control brain tissues; settings: HD and control groups
Method: (§1) FIGS. 12A-12B show 3F3 FMA staining in human Huntington's disease brains and mouse tissues. In FIG. 12A, human HD and control brain tissues were fixed in 4% PFA for 24 h, perfused in 30% sucrose for 24 h, and stained with DAPI (nuclei, blue) and 3F3 FMA (red). The expression level of TfR1 is low. There was no difference between HD and control groups. In FIG. 12B, mouse liver tissues and mouse GBM tissues were fixed and stained with DAPI (nuclei, blue) and 3F3 FMA (red). 3F3 FMA was able to recognize mouse TfR1.

SK-LMS-1 cells = assay: Immunofluorescence in SK-LMS-1 cells; type: cell-based, human; settings: 1 μM RSL3, 4 h
mouse liver tissues = assay: Staining of normal mouse liver frozen tissue
Method: as §1

[1] = test system: B cell lymphoma mouse xenograft tumor tissue (SU-DHL-6 cells); assay: Staining of B cell lymphoma mouse xenograft tumor tissue sections; settings: 40 mg/kg IKE once daily IP for 14 days
Method: Tumor tissues were fixed in 4% paraformaldehyde (PFA) for 24 h at 4° C. followed by washing with PBS three times. The tissues were perfused in 30% sucrose for 24 h at 4° C. for cryo-protection. The samples were embedded in OCT cryostat sectioning medium, and then moved directly into a cryostat. After equilibration of temperature, frozen tumor tissues were cut into 5 μm thick sections. Tissue sections were mounted on to poly-L-lysine coated slides by placing the cold sections onto warm slides. Slides were stored at −80° C. until staining. For staining, slides were warmed to room temperature followed by washing with PBS twice. A hydrophobic barrier pen was used to draw a circle on each slide. The slides were permeabilized with PBS with 0.4% Triton X-100 (PBT) twice before non-specific-binding blocking by incubating the sections with 10% goat serum (ThermoFisher 50197Z) for 30 min at room temperature. […] All images were captured on a Zeiss LSM 800 confocal microscope at Plan-Apochromat 63×/1.40 Oil DIC objective with constant laser intensity for all analyzed samples. The intensity above threshold of the fluorescent signal of the bound antibodies was analyzed using NIH ImageJ software (ImageJ, RRID:SCR_003070). Data were expressed as fold change comparing with the vehicle. […]

B1: 3F3-FMA: Murine monoclonal IgG1 raised against ferroptotic membrane fractions; antigen is transferrin receptor protein 1 (TfR1) (antibody, V domains shown)
VH: EVLLQQSGTELVRPGALVKLSCKASGFNIQDLYIHWVKQRPEQGLEWIGWIDPETDNTIYDPKFQGKASITADTSSNTAYLQLSSLTSEDTAMYYCSTGLLQWYFDVWGAGTAVTVSS
VL: DIVMTQSPSSLAMSIGQKVTMRCKSSQSLLNSYNQKNCLAWYQQKPGQSPKLLLYFVSTRESGVPDRFIGSGSGTDFTLTISSVQAEDLADYFCQQHYSTPLTFGAGTKLELK
- staining signal in brain tissue (human brain tissues): lack of signal
- 3F3-FMA staining upon ferroptosis induction (SK-LMS-1 cells): concentrated at the cell boundaries and became brighter
- staining signal in normal liver tissue (mouse liver tissues): robust signal
- antibody staining intensity in IKE-treated vs vehicle tumor tissue [1]: did not detect its antigen; also recorded: no difference
